One may read the Kd as the concentration at which binding is half-saturated. A low value points to a tighter complex. One may read the t½ as the time needed for the level to fall by half in the phase considered.

For one assay, the target named is T1, human FXII (Homo sapiens, UniProt P00748).
T1 construct: plasma purified human FXII and FXIIa proteins (Enzyme Research Laboratories); purchased Enzyme Research Laboratories 1212; host or cells: human plasma (said of the same vendor's proteins used as immunogen)
T1 sequence (P00748 20-615): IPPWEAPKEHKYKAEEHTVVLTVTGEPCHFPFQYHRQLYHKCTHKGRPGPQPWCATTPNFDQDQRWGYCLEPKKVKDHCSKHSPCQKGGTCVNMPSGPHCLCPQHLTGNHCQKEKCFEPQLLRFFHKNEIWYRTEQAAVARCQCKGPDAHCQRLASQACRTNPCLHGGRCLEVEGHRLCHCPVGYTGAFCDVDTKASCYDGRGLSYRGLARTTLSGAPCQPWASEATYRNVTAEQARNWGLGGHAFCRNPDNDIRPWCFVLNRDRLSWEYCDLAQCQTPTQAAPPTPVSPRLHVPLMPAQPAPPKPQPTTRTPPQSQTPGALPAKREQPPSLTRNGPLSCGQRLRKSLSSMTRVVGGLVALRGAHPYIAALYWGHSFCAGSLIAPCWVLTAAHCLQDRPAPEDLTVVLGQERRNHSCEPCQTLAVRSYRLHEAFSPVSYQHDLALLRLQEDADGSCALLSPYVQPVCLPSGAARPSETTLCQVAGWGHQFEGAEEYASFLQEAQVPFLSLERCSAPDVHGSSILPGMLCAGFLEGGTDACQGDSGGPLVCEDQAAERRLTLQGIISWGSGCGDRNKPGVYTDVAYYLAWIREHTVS
Briefly: Surface plasmon resonance (Biacore 4000) binding kinetics, hFXII. Here is the method: Equilibrium dissociation constant (KD) for different FXII reagents binding to purified anti-FXII monoclonal antibodies were determined using a real-time surface plasmon resonance based Biacore 4000 biosensor. All binding studies were performed in 10 mM HEPES, 300 mM NaCl, and 0.05% v/v Surfactant Tween-20, pH 7.4 (HBS-P) running buffer at 25° C. and 37° C. The Biacore CM5 sensor chip surface was first derivatized by amine coupling with the mouse anti-human Fc specific monoclonal antibody (GE Healthcare Cat #BR100839) to capture anti-FXII monoclonal antibodies. Binding studies were performed on human FXII and FXIIa (Enzyme Research Laboratories, Cat #1212 and 1212a, respectively). Different concentrations of hFXII and hFXIIa (50 nM-3.125 nM; 2-fold serial dilution) were first prepared in HBS-P running buffer and were injected over anti-human Fc captured anti-FXII monoclonal antibody surface for 3 minutes at a flow rate of 30 uL/minute, while the dissociation of monoclonal antibody bound FXII reagent was monitored for 5 minutes in HBS-P running buffer. The association rate (ka) and dissociation rate (kd) were determined by fitting the real-time binding sensorgrams to a 1:1 binding model with mass transport limitation using Scrubber 2.0c curve-fitting software. Binding dissociation equilibrium constant (KD) and dissociative half-life (t½) were calculated from the kinetic rates as: […]

Assay [1] relates to thrombin generated via the Extrinsic and Common pathways. Briefly: Thrombin Generation Assay (TGA) triggered by Tissue Factor. It counts as biochemical, human. The settings on record: Extrinsic Pathway Activation with Tissue Factor; dash cells; dose up to 500 nM. From the text:
(§1) This Example describes the inhibitory activity of selected antibodies, as determined by four functional plasma assays: 1) Activated Partial Thromboplastin Time (aPTT), 2) Prothrombin Time (PT), 3) Thrombin Generation Assay (TGA) triggered by ellagic acid and 4) TGA triggered by Tissue Factor. The aPTT test evaluates all clotting factors of the Intrinsic and Common pathways of the coagulation cascade by measuring time for a clot to form after the addition of calcium and ellagic acid, whereas the PT test evaluates all clotting factors of the Extrinsic and Common pathways of the coagulation cascade after the addition of calcium and Tissue Factor. The TGA triggered by ellagic acid measures the rate and amount of thrombin generated via the Intrinsic and Common pathways whereas TGA triggered by Tissue Factor measures the rate and amount of thrombin generated via the Extrinsic and Common pathways.
The thrombin generation profile was determined in a Thermo Scientific Hemker Thrombinoscope in the following manner: A total of 55 ul of pooled normal human plasma was added to a well of a microplate at 37° C. Then 5 ul of a 2× serially diluted test article (antibody or small molecule inhibitor) in PBS was added to the well of the microplate and allowed to incubate for 30 min. 15 ul of Tissue Factor PPP Reagent (Diagnostica Stago) was added to the well and allowed to incubate for 45 min. Then 15 ul of Fluo Flu Cal substrate (Diagnostica Stago) was added immediately before a continuous 90 min reading of the microplate. The measured real-time thrombin concentration values were plotted against time to yield a thrombogram profile for each concentration of the test article used.

Assay [2] relates to Intrinsic and Common pathways of the coagulation cascade. Description: Activated Partial Thromboplastin Time (aPTT) in pooled normal human plasma. The class given is biochemical. The settings on record: dose response curves, pooled normal human plasma.
Source text: as §1
The aPTT was determined on Diagnostica Stago STart4 Hemostasis Analyzer in the following manner: A total of 50 ul of pooled normal human plasma was added to a cuvette at 37° C. After 1 min, 5 ul of a 2× serially diluted test article (antibody or small molecule inhibitor) in PBS was added to the cuvette and allowed to incubate for 5 min. Then 50 ul of APPT-XL Ellagic Acid (Thermo Scientific) was added and allowed to incubate for 300 seconds before 50 ul of 20 mM calcium chloride (Thermo Scientific) was added to start the reaction. The measured clot time for the test article concentration was normalized to baseline (no drug) plasma clot time and plotted against log molar concentration of the test article. The results were analyzed using nonlinear regression (4-parameter logistics) with Prism 5 software (GraphPad) to obtain doubling time concentration.

B1: mAb26048: fully human anti-FXII/FXIIa monoclonal antibody, HCVR/LCVR SEQ ID NOs: 18/26 (antibody, V domains shown)
VH: EVQLVESGGGLVQPRGSLRLSCVASGFTFSDYGMSWVRQAPGKGLEWVSVIGGAGHGTYYADSVKGRFTISRDNSRNTLYLQMNSLRDEDTAVYYCAKKYYWNYVGGMDVWGRGTTVTVSS
VL: DIQMTQSPSSVSASVGDRVTITCRASQDINNWLAWYQQKPGKAPKLLISTASSLQSGVPSRFSGSGSGTDFTLTISSLQPEDFATYYCQQANSLPFTFGPGTKVDIK
In the assay with human FXII (25° C.), B1 gave a Kd of 0.879 nM, a ka of 361000 M⁻¹ s⁻¹, a kd of 0.000317 s⁻¹ and a t½ of 36.5 min. In the assay with human FXII (37° C.), this molecule registered an equilibrium dissociation constant (Kd) of 2.53 nM, a ka of 276000 M⁻¹ s⁻¹, a kd of 0.000698 s⁻¹ and a t½ of 17 min. Besides, in assay [1], the “Concentration required for ↑ lag time by 2×” value (“Concentration required … by 2×” for short) is “— (no effect on thrombin generation with a dose up to 500 nM)”, the “Concentration required for ↓ endogenous thrombin potential by ½” value is reported as “— (no effect on thrombin generation with a dose up to 500 nM)” and the “Concentration required for ↓ thrombin peak by ½” value was “— (no effect on thrombin generation with a dose up to 500 nM)”. For the same molecule, the “effect on plasma aPTT (in words)” value in assay [2] is reported as “prolonged the aPTT”.

B2: mAb26049: fully human anti-FXII/FXIIa monoclonal antibody, HCVR/LCVR SEQ ID NOs: 34/42 (antibody, V domains shown)
VH: EVQLVESGGDLVQPGGSLRLSCAASGFTFNTYAMHWVRQAPGKGLEYISAIDTKGGSTYYADSVKGRFTISRDNSKNAQYLQMDSLRVEDMAVYYCARGFGLDVWGQGTTVTVSS
VL: DVVMTQSPLSLAVTLGQPASISCRSSQSLGYSDGNTYLNWFQQRPGQSPRRLIYKVSNRDSGVPDRFSGSGSGTDFTLKINRVETVDVGVYYCMQATHWPYTFGQGTKLEIK
In the assay with human FXII (25° C.), B2 showed a dissociation constant (Kd) of 2.74 nM, a ka of 90100 M⁻¹ s⁻¹, a kd of 0.000247 s⁻¹ and a t½ of 46.7 min. For the same molecule, in the assay with human FXII (37° C.), binding was characterised by a dissociation constant (Kd) of 8.78 nM, the ka stood at 87000 M⁻¹ s⁻¹, the kd is 0.000764 s⁻¹ and the t½ came out at 15 min. In addition, in assay [1], the “Concentration required … by 2×” value is recorded as “— (no effect on thrombin generation with a dose up to 500 nM)”, the “Concentration required for ↓ endogenous thrombin potential by ½” value is recorded as “— (no effect on thrombin generation with a dose up to 500 nM)” and the “Concentration required for ↓ thrombin peak by ½” value is “— (no effect on thrombin generation with a dose up to 500 nM)”. The “effect on plasma aPTT (in words)” value in assay [2] was “prolonged the aPTT”.

B3: mAb26036: fully human anti-FXII/FXIIa monoclonal antibody, HCVR/LCVR SEQ ID NOs: 2/10 (antibody, V domains shown)
VH: QVQLVQSGAEVKKPGASVTVSCKASGYTFTSYYLHWVRQAPGQGLEWMGIINPSGGSTSYAQKFQGRVTMTRDTSTSTVYMELSSLRSEDTAVYYCARGVTTVTTYYHYYNMDVWGQGTTVTVSS
VL: DIQMTQSPSSLSASVGDRVTITCRASQGISNYLAWFQQKPGKAPKSLIYAASSLQSGVPSKFSGSGSGTDFTLTISSLQPEDFATYYCQKYNTYPLTFGGGTKVEIK
In the assay with human FXII (25° C.), B3 gave a Kd of 3.12 nM, a ka of 76300 M⁻¹ s⁻¹, a kd of 0.000238 s⁻¹ and a t½ of 48.5 min. Further, in the assay with human FXII (37° C.), the dissociation constant (Kd) was 4.62 nM, the ka is 121000 M⁻¹ s⁻¹, the kd stood at 0.00056 s⁻¹ and the t½ was found to be 20.6 min. For the same molecule, in assay [1], the “Concentration required … by 2×” value was “— (no effect on thrombin generation with a dose up to 500 nM)”, the “Concentration required for ↓ endogenous thrombin potential by ½” value is “— (no effect on thrombin generation with a dose up to 500 nM)” and the “Concentration required for ↓ thrombin peak by ½” value is on record as “— (no effect on thrombin generation with a dose up to 500 nM)”. In assay [2], the “effect on plasma aPTT (in words)” value is on record as “prolonged the aPTT”.

The values above are taken from patent publication US12068729B2, “Anti-factor XII/XIIa antibodies and uses thereof” (Regeneron Pharmaceuticals, Inc., priority 2018, dated 2024).
